Laboratory results from the supplement of paper PMC11246515.
± gives the standard deviation of the averaged measurements.

Test: total protein half-life in vivo (active degradation + dilution); higher = more stable protein
[1] = E. coli NCM3722 delta-clpP delta-lon delta-hslV, growth: N-lim chemostat, doubling time 6 h
[2] = E. coli NCM3722 delta-clpP, growth: N-lim chemostat, doubling time 6 h
[3] = E. coli NCM3722 delta-hslV, growth: N-lim chemostat, doubling time 6 h
[4] = E. coli NCM3722 delta-lon, growth: N-lim chemostat, doubling time 6 h
[5] = E. coli NCM3722 delta-smpB, growth: N-lim chemostat, doubling time 6 h
[6] = wild type E. coli NCM3722, growth: C-lim chemostat, doubling time 3 h
[7] = wild type E. coli NCM3722, growth: C-lim chemostat, doubling time 6 h
[8] = wild type E. coli NCM3722, growth: C-lim chemostat, doubling time 12 h
[9] = wild type E. coli NCM3722, growth: N-lim chemostat, doubling time 6 h
[10] = wild type E. coli NCM3722, growth: N-lim chemostat, doubling time 12 h
[11] = wild type E. coli NCM3722, growth: P-lim chemostat, doubling time 6 h
[12] = wild type E. coli NCM3722, growth: P-lim chemostat, doubling time 12 h

With “MSCPVIELTQQLIRRPSLSPDDAGCQALLIERLQAIGFTVERMDFADTQNFWAWRGQGETLAFAGHTDVVPPGDADRWINPPFEPTIRDGMLFGRGAADMKGSLAAMVVAAERFVAQHPNHTGRLAFLITSDEEASAHNGTVKVVEALMARNERLDYCLVGEPSSIEVVGDVVKNGRRGSLTCNLTIHGVQGHVAYPHLADNPVHRAAPFLNELVAIEWDQGNEFFPATSMQIANIQAGTGSNNVIPGELFVQFNFRFSTELTDEMIKAQVLALLEKHQLRYTVDWWLSGQPFLTARGKLVDAVVNAVEHYNEIKPQLLTTGGTSDGRFIARMGAQVVELGPVNATIHKINECVNAADLQLLARMYQRIMEQLVA [P0AED7]” the “total protein half-life in vivo” value [1] was 4.94 ± 0.53 h, the “total protein half-life in vivo” value [2] was 4.52 ± 0.093 h and the “total protein half-life in vivo” value [3] was 4.42 ± 0.081 h. The “total protein half-life in vivo” value [4] was 5.76 ± 1.5 h, the “total protein half-life in vivo” value [5] was 4.4 ± 0.41 h and the “total protein half-life in vivo” value [6] was 3.05 ± 0.25 h. The “total protein half-life in vivo” value [7] was 5.7 ± 0.46 h, the “total protein half-life in vivo” value [8] was 9.7 ± 0.28 h and the “total protein half-life in vivo” value [9] was 4.418 ± 0.036 h. The “total protein half-life in vivo” value [10] was 7.37 ± 0.72 h, the “total protein half-life in vivo” value [11] was 5.6 ± 0.48 h and the “total protein half-life in vivo” value [12] was 11 ± 1.8 h.

With “MSDDMSMGLPSSAGEHGVLRSMQEVAMSSQEASKMLRTYNIAWWGNNYYDVNELGHISVCPDPDVPEARVDLAQLVKTREAQGQRLPALFCFPQILQHRLRSINAAFKRARESYGYNGDYFLVYPIKVNQHRRVIESLIHSGEPLGLEAGSKAELMAVLAHAGMTRSVIVCNGYKDREYIRLALIGEKMGHKVYLVIEKMSEIAIVLDEAERLNVVPRLGVRARLASQGSGKWQSSGGEKSKFGLAATQVLQLVETLREAGRLDSLQLLHFHLGSQMANIRDIATGVRESARFYVELHKLGVNIQCFDVGGGLGVDYEGTRSQSDCSVNYGLNEYANNIIWAIGDACEENGLPHPTVITESGRAVTAHHTVLVSNIIGVERNEYTVPTAPAEDAPRALQSMWETWQEMHEPGTRRSLREWLHDSQMDLHDIHIGYSSGIFSLQERAWAEQLYLSMCHEVQKQLDPQNRAHRPIIDELQERMADKMYVNFSLFQSMPDAWGIDQLFPVLPLEGLDQVPERRAVLLDITCDSDGAIDHYIDGDGIATTMPMPEYDPENPPMLGFFMVGAYQEILGNMHNLFGDTEAVDVFVFPDGSVEVELSDEGDTVADMLQYVQLDPKTLLTQFRDQVKKTDLDAELQQQFLEEFEAGLYGYTYLEDE” the “total protein half-life in vivo” value [1] was 4.96 ± 0.56 h, the “total protein half-life in vivo” value [2] was 4.38 ± 0.22 h and the “total protein half-life in vivo” value [3] was 4.3 ± 0.57 h. For the same sequence, the “total protein half-life in vivo” value [4] was 4.28 ± 0.16 h, the “total protein half-life in vivo” value [5] was 3.97 ± 0.11 h and the “total protein half-life in vivo” value [6] was 2.872 ± 0.017 h. For the same sequence, the “total protein half-life in vivo” value [7] was 5.43 ± 0.37 h, the “total protein half-life in vivo” value [8] was 9.85 ± 0.33 h and the “total protein half-life in vivo” value [9] was 3.93 ± 0.19 h. The “total protein half-life in vivo” value [10] was 5.91 ± 0.16 h, the “total protein half-life in vivo” value [11] was 5.54 ± 0.16 h and the “total protein half-life in vivo” value [12] was 11.5 ± 0.38 h.

For “MSDEGLAPGKRLSEIRQQQGLSQRRAAELSGLTHSAISTIEQDKVSPAISTLQKLLKVYGLSLSEFFSEPEKPDEPQVVINQDDLIEMGSQGVSMKLVHNGNPNRTLAMIFETYQPGTTTGERIKHQGEEIGTVLEGEIVLTINGQDYHLVAGQSYAINTGIPHSFSNTSAGICRIISAHTPTTF [P0A9U6]”, the “total protein half-life in vivo” value [1] was 5.35 ± 0.67 h, the “total protein half-life in vivo” value [2] was 5.41 ± 3.1 h and the “total protein half-life in vivo” value [3] was 3.29 h. For the same sequence, the “total protein half-life in vivo” value [4] was 4.06 ± 0.25 h, the “total protein half-life in vivo” value [5] was 2.66 ± 0.063 h and the “total protein half-life in vivo” value [7] was 4.03 ± 0.12 h. The “total protein half-life in vivo” value [8] was 5.53 ± 0.11 h, the “total protein half-life in vivo” value [9] was 2.7 ± 0.51 h and the “total protein half-life in vivo” value [10] was 3.47 ± 0.064 h. For the same sequence, the “total protein half-life in vivo” value [11] was 4.43 ± 0.92 h and the “total protein half-life in vivo” value [12] was 6.69 ± 0.82 h.

With “MSDKKKRSMAGLPWIAAMAFFMQALDATILNTALPAIAHSLNRSPLAMQSAIISYTLTVAMLIPVSGWLADRFGTRRIFTLAVSLFTLGSLACALSNSLPQLVVFRVIQGIGGAMMMPVARLALLRAYPRNELLPVLNFVAMPGLVGPILGPVLGGVLVTWATWHWIFLINIPIGIAGLLYARKHMPNFTTARRRFDITGFLLFGLSLVLFSSGIELFGEKIVASWIALTVIVTSIGLLLLYILHARRTPNPLISLDLFKTRTFSIGIVGNIATRLGTGCVPFLMPLMLQVGFGYQAFIAGCMMAPTALGSIIAKSMVTQVLRRLGYRHTLVGITVIIGLMIAQFSLQSPAMAIWMLILPLFILGMAMSTQFTAMNTITLADLTDDNASSGNSVLAVTQQLSISLGVAVSAAVLRVYEGMEGTTTVEQFHYTFITMGIITVASAAMFMLLKTTDGNNLIKRQRKSKPNRVPSESE” the “total protein half-life in vivo” value [1] was 6.64 h and the “total protein half-life in vivo” value [11] was 5.92 h.

With “MSDLHNESIFITGGGSGLGLALVERFIEEGAQVATLELSAAKVASLRQRFGEHILAVEGNVTCYADYQRAVDQILTRSGKLDCFIGNAGIWDHNASLVNTPAETLETGFHELFNVNVLGYLLGAKACAPALIASEGSMIFTLSNAAWYPGGGGPLYTASKHAATGLIRQLAYELAPKVRVNGVGPCGMASDLRGPQALGQSETSIMQSLTPEKIAAILPLQFFPQPADFTGPYVMLTSRRNNRALSGVMINADAGLAIRGIRHVAAGLDL [P0CI31]” the “total protein half-life in vivo” value [1] was 6.21 ± 0.63 h and the “total protein half-life in vivo” value [11] was 3.6 ± 0.55 h.

With “MSDNDELQQIAHLRREYTKGGLRRRDLPADPLTLFERWLSQACEAKLADPTAMVVATVDEHGQPYQRIVLLKHYDEKGMVFYTNLGSRKAHQIENNPRVSLLFPWHTLERQVMVIGKAERLSTLEVMKYFHSRPRDSQIGAWVSKQSSRISARGILESKFLELKQKFQQGEVPLPSFWGGFRVSLEQIEFWQGGEHRLHDRFLYQRENDAWKIDRLAP [P0AFI7]” the “total protein half-life in vivo” value [1] was 4.89 ± 0.34 h, the “total protein half-life in vivo” value [2] was 4.63 ± 0.17 h and the “total protein half-life in vivo” value [3] was 4.2 ± 0.047 h. The “total protein half-life in vivo” value [4] was 4.66 ± 0.076 h, the “total protein half-life in vivo” value [5] was 4.39 ± 0.58 h and the “total protein half-life in vivo” value [6] was 3.53 ± 0.6 h. The “total protein half-life in vivo” value [7] was 5.55 ± 0.32 h, the “total protein half-life in vivo” value [8] was 10.8 ± 1.7 h and the “total protein half-life in vivo” value [9] was 4.14 ± 0.077 h. The “total protein half-life in vivo” value [10] was 8.66 ± 0.44 h, the “total protein half-life in vivo” value [11] was 5.65 ± 0.12 h and the “total protein half-life in vivo” value [12] was 11.2 ± 0.29 h.

In the case of “MSDQFDAKAFLKTVTSQPGVYRMYDAGGTVIYVGKAKDLKKRLSSYFRSNLASRKTEALVAQIQQIDVTVTHTETEALLLEHNYIKLYQPRYNVLLRDDKSYPFIFLSGDTHPRLAMHRGAKHAKGEYFGPFPNGYAVRETLALLQKIFPIRQCENSVYRNRSRPCLQYQIGRCLGPCVEGLVSEEEYAQQVEYVRLFLSGKDDQVLTQLISRMETASQNLEFEEAARIRDQIQAVRRVTEKQFVSNTGDDLDVIGVAFDAGMACVHVLFIRQGKVLGSRSYFPKVPGGTELSEVVETFVGQFYLQGSQMRTLPGEILLDFNLSDKTLLADSLSELAGRKINVQTKPRGDRARYLKLARTNAATALTSKLSQQSTVHQRLTALASVLKLPEVKRMECFDISHTMGEQTVASCVVFDANGPLRAEYRRYNITGITPGDDYAAMNQVLRRRYGKAIDDSKIPDVILIDGGKGQLAQAKNVFAELDVSWDKNHPLLLGVAKGADRKAGLETLFFEPEGEGFSLPPDSPALHVIQHIRDESHDHAIGGHRKKRAKVKNTSSLETIEGVGPKRRQMLLKYMGGLQGLRNASVEEIAKVPGISQGLAEKIFWSLKH [P0A8G0]”, the “total protein half-life in vivo” value [1] is reported as 6.54 ± 0.81 h, the “total protein half-life in vivo” value [2] is reported as 5.14 ± 0.15 h and the “total protein half-life in vivo” value [3] is reported as 4.77 ± 0.12 h. For the same sequence, the “total protein half-life in vivo” value [4] was 6.421 ± 0.061 h, the “total protein half-life in vivo” value [5] was 4.75 ± 0.15 h and the “total protein half-life in vivo” value [6] was 2.84 ± 0.067 h. For the same sequence, the “total protein half-life in vivo” value [7] was 5.1 ± 0.39 h, the “total protein half-life in vivo” value [8] was 7.83 ± 0.25 h and the “total protein half-life in vivo” value [9] was 4.84 ± 0.28 h. For the same sequence, the “total protein half-life in vivo” value [10] was 8.62 ± 0.12 h, the “total protein half-life in vivo” value [11] was 4.61 ± 0.15 h and the “total protein half-life in vivo” value [12] was 8.48 ± 0.19 h.

In the case of “MSDSNSRLVYSTETGRIDEPKAAPVRPKGDGVVRIQRQTSGRKGKGVCLITGVDLDDAELTKLAAELKKKCGCGGAVKDGVIEIQGDKRDLLKSLLEAKGMKVKLAGG”, the “total protein half-life in vivo” value [1] is reported as 5.12 ± 0.14 h, the “total protein half-life in vivo” value [2] is reported as 4.16 h and the “total protein half-life in vivo” value [3] is reported as 3.29 ± 0.22 h. The “total protein half-life in vivo” value [4] was 4.11 ± 0.81 h, the “total protein half-life in vivo” value [5] was 3.04 ± 0.3 h and the “total protein half-life in vivo” value [6] was 2.76 ± 0.65 h. The “total protein half-life in vivo” value [7] was 4.11 ± 0.38 h, the “total protein half-life in vivo” value [8] was 5.29 ± 0.51 h and the “total protein half-life in vivo” value [9] was 3.15 h. For the same sequence, the “total protein half-life in vivo” value [10] was 5.059 ± 0.042 h, the “total protein half-life in vivo” value [11] was 3.05 h and the “total protein half-life in vivo” value [12] was 5.7 ± 0.6 h.
